Key:
Assay type in all cases: biochemical
[1] = Validation of generalist properties over the four substrates screened
Procedure: For the production of lyophilized protein powders, LB agar plates supplemented with chloramphenicol (30 μg/mL) were streaked with E. coli containing a desired B. megaterium P450-BM3 variant in an IPTG-inducible vector. The plates were grown at 37° C. for 16 hrs before single clones were selected to inoculate a 15 mL Falcon™ tube (Fisher) containing TB media (3 mL) supplemented with chloramphenicol (30 μg/mL). The tube was shaken at 200 rpm, 30° C., and 85% humidity for 20-24 h to grow the cultures to saturation. Then, 2.5 mL of the overnight culture was used to inoculate sterile 1 L flasks containing TB medium (250 mL) supplemented with chloramphenicol (30 μg/mL), trace element solution (as described above), and 0.05 g/L ammonium iron (III) citrate. After being shaken at 250 rpm, 30° C., and 85% humidity to an OD600 of 0.8-1.2, P450 expression was induced by addition of IPTG (500 uM) and the heme precursor 5-aminolevulinic acid (5-ALA) to a final concentration of 500 uM. The cultures were grown for additional 20-24 hours and centrifuged in pre-weighed 250 mL centrifuge bottles for 20 minutes at 4000 rpm, 4° C. The supernatants were discarded, and the centrifuge bottles containing cell pellets were weighed. The pellets were resuspended in 50 mM potassium phosphate buffer with 2 mM DTT, pH 8.0 (5 mL of buffer per gram of cell pellet). The cells were lysed using a microfluidizer homogenizer, and the suspensions of cells and lysate were collected in sterile 50 mL centrifuge tubes. The samples were centrifuged for 30 minutes at 10,000 rpm, 4° C. The clarified lysate was collected into a plastic petri plate and frozen at −80° C. prior to lyophilization. The enzyme-containing lysates were lyophilized using standard methods known in the art.
Enzyme stocks (˜12 μM) were prepared by dissolving ˜20 mg of each enzyme in 100 mM potassium phosphate buffer, pH 8.0 (1 mL). The concentration of each enzyme stock solution was determined by the UV-visible absorption spectroscopy (after centrifugation to remove particulates) and diluted to standardize at 12 μM heme protein. Substrate solutions were prepared by dissolving each substrate in DMSO to reach a final concentration of 20 mM or 40 mM. Reaction mix (235 μL) followed by enzyme solution (50 μL) was added to the plates. The substrate stock solution was added to the enzyme solutions (15 μL at the two different concentrations). Each reaction contained 100 mM potassium phosphate, 1.0 mM NADP+, 25 mM glucose, 0.5 mg/mL glucose dehydrogenase, 5% DMSO and substrate at 1 or 2 mM. Loratadine, imatinib, and gefitinib (See, FIG. 1) were selected as substrates in addition to diclofenac to validate improved BM3 variants. The reactions were shaken at 450 rpm at 30° C. over 24 hours. All reactions were diluted with acetonitrile to a final concentration of 0.5 mM substrate. The plates were then centrifuged at 3,000 g for 1 hour at 20° C. The supernatant was diluted 1:1 with acetonitrile, filtered using a 0.4 micron filter, and analyzed by UPLC-MS.
For UPLC-MS analysis, the quenched and filtered reactions were transferred to 96-well HTP plates for analysis by UPLC on a Waters Acquity H-class system equipped with an autosampler. 1 uL of quenched sample was injected onto an Acquity UPLC HSS T3 column, 100 Å, (1.8 um; 2.1×100 mm). […] Column eluent was monitored by PDA (200-600 nm) prior to MS analysis in positive ESI mode (desolvation temperature 350° C., 3.25 kV spray voltage, cone voltage 25V). […]

[2] = Validation of generalist properties: oxidation of gefitinib by lyophilized P450-BM3 variant, UPLC-MS; details: [Gefitinib] = 1 mM; for TON: TON = [substrate]*% conversion/[P450]; for FIOPC (A07): fold improvement over parent MCYP-1.2-A07
In short: (§1)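 Lyophilized lysate of E. coli-expressed P450-BM3 variant (stock standardized to 12 μM heme) was incubated 24 h at 30 °C with 1 or 2 mM substrate, 1.0 mM NADP+, 25 mM glucose, 0.5 mg/mL glucose dehydrogenase and 5% DMSO in 100 mM potassium phosphate. Acetonitrile-quenched samples were analyzed by UPLC-MS (positive ESI).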

[3] = Validation of generalist properties: oxidation of loratadine by lyophilized P450-BM3 variant, UPLC-MS; details: [Loratadine] = 1 mM; for TON: TON = [substrate]*% conversion/[P450]; for FIOPC (A07): fold improvement over parent MCYP-1.2-A07
In short: as §1

[4] = Validation of generalist properties: oxidation of diclofenac by lyophilized P450-BM3 variant, UPLC-MS; details: [Diclofenac] = 1 mM; for TON: TON = [substrate]*% conversion/[P450]; for FIOPC (A07): fold improvement over parent MCYP-1.2-A07
In short: as §1

[5] = Validation of generalist properties: oxidation of imatinib by lyophilized P450-BM3 variant, UPLC-MS; details: [Imatinib] = 1 mM; for TON: TON = [substrate]*% conversion/[P450]; for FIOPC (A07): fold improvement over parent MCYP-1.2-A07
In short: as §1

Molecule | performance (% conversion at 1 mM substrate loading) over the substrates screened, in words [1] | % Conv. [2] | TON [2] | FIOPC (A07) [2] | % Conv. [3] | TON [3] | FIOPC (A07) [3] | % Conv. [4] | TON [4] | FIOPC (A07) [4] | % Conv. [5] | TON [5] | FIOPC (A07) [5]
Variant 14: P450-BM3 variant of SEQ ID NO: 4: C48S; I95P; G115R; L216Y; D232H; M491A; N574T; D722S (protein, P450_BM3, I95P; G115R; L216Y; D232H; M491A; N574T; D722S) MTIKEMPQPKTFGELKNLPLLNTDKPVQALMKIADELGEIFKFEAPGSVTRYLSSQRLIKEACDESRFDKNLSQALKFARDFAGDGLVTSWTHEPNWKKAHNILLPSFSQQAMKRYHAMMVDIAVQLVQKWERLNADEHIEVSEDMTRLTLDTIGLCGFNYRFNSFYRDQPHPFIISMVRALDEVMNKLQRANPDDPAYDENKRQCQEDIKVMNDYVDKIIADRKARGEQSHDLLTQMLNGKDPETGEPLDDGNISYQIITFLIAGHETTSGLLSFALYFLVKNPHVLQKVAEEAARVLVDPVPSYKQVKQLKYVGMVLNEALRLWPTAPAFSLYAKEDTVLGGEYPLEKGDEVMVLIPQLHRDKTIWGDDVEEFRPERFENPSAIPQHAFKPFGNGQRACIGQQFALHEATLVLGMMLKHFDFEDHTNYELDIKETLTLKPEGFVVKAKSKKIPLGGIPSPSTEQSAKKVRKKAENAHNTPLLVLYGSNAGTAEGTARDLADIAMSKGFAPQVATLDSHAGNLPREGAVLIVTASYNGHPPDNAKQFVDWLDQASADEVKGVRYSVFGCGDKTWATTYQKVPAFIDETLAAKGAENIADRGEADASDDFEGTYEEWREHMWSDVAAYFNLDIENSEDNKSTLSLQFVDSAADMPLAKMHGAFSTNVVASKELQQPGSARSTRHLEIELPKEASYQEGDHLGVIPRNYEGIVNRVTARFGLSASQQIRLEAEEEKLAHLPLAKTVSVEELLQYVELQDPVTRTQLRAMAAKTVCPPHKVELEALLEKQAYKEQVLAKRLTMLELLEKYPACEMKFSEFIALLPSIRPRYYSISSSPRVDEKQASITVSVVSGEAWSGYGEYKGIASNYLAELQEGDTITCFISTPQSEFTLPKDPETPLIMVGPGTGVAPFRGFVQARKQLKEQGQSLGEAHLYFGCRSPHEDYLYQEELENAQSEGIITLHTAFSRMPNQPKTYVQHVMEQDGKKLIELLDQGAHFYICGDGSQMAPAVEATLMKSYADVHQVSEADARLWLQQLEEKGRYAKDVWAG | moderate activity for all four substrates | ++++ (15.01-20.00) | ‡‡‡‡ (10000-50000) | **** (10.01-15.00) | +++ (10.01-15.00) | ‡‡‡ (5001-10000) | * (0.0-3.0) | ++++ (15.01-20.00) | ‡‡‡‡ (10000-50000) | ** (3.01-5.0) | +++ (10.01-15.00) | ‡‡‡ (5001-10000) | * (0.0-3.0)
Variant 15: P450-BM3 variant of SEQ ID NO: 4: K32R; C48S; I95P; L216Y; D232H; E349T; M491A; N574T; T577A; E619D; D722S (protein, P450_BM3, C48S; I95P; L216Y; D232H; E349T; M491A; N574T; T577A; E619D; D722S) MTIKEMPQPKTFGELKNLPLLNTDKPVQALMRIADELGEIFKFEAPGSVTRYLSSQRLIKEACDESRFDKNLSQALKFARDFAGDGLVTSWTHEPNWKKAHNILLPSFSQQAMKGYHAMMVDIAVQLVQKWERLNADEHIEVSEDMTRLTLDTIGLCGFNYRFNSFYRDQPHPFIISMVRALDEVMNKLQRANPDDPAYDENKRQCQEDIKVMNDYVDKIIADRKARGEQSHDLLTQMLNGKDPETGEPLDDGNISYQIITFLIAGHETTSGLLSFALYFLVKNPHVLQKVAEEAARVLVDPVPSYKQVKQLKYVGMVLNEALRLWPTAPAFSLYAKEDTVLGGEYPLTKGDEVMVLIPQLHRDKTIWGDDVEEFRPERFENPSAIPQHAFKPFGNGQRACIGQQFALHEATLVLGMMLKHFDFEDHTNYELDIKETLTLKPEGFVVKAKSKKIPLGGIPSPSTEQSAKKVRKKAENAHNTPLLVLYGSNAGTAEGTARDLADIAMSKGFAPQVATLDSHAGNLPREGAVLIVTASYNGHPPDNAKQFVDWLDQASADEVKGVRYSVFGCGDKTWAATYQKVPAFIDETLAAKGAENIADRGEADASDDFEGTYEEWRDHMWSDVAAYFNLDIENSEDNKSTLSLQFVDSAADMPLAKMHGAFSTNVVASKELQQPGSARSTRHLEIELPKEASYQEGDHLGVIPRNYEGIVNRVTARFGLSASQQIRLEAEEEKLAHLPLAKTVSVEELLQYVELQDPVTRTQLRAMAAKTVCPPHKVELEALLEKQAYKEQVLAKRLTMLELLEKYPACEMKFSEFIALLPSIRPRYYSISSSPRVDEKQASITVSVVSGEAWSGYGEYKGIASNYLAELQEGDTITCFISTPQSEFTLPKDPETPLIMVGPGTGVAPFRGFVQARKQLKEQGQSLGEAHLYFGCRSPHEDYLYQEELENAQSEGIITLHTAFSRMPNQPKTYVQHVMEQDGKKLIELLDQGAHFYICGDGSQMAPAVEATLMKSYADVHQVSEADARLWLQQLEEKGRYAKDVWAG | moderate activity for all four substrates | ++++ (15.01-20.00) | ‡‡‡‡ (10000-50000) | **** (10.01-15.00) | ++++ (15.01-20.00) | ‡‡‡‡ (10000-50000) | * (0.0-3.0) | ++++ (15.01-20.00) | ‡‡‡‡ (10000-50000) | * (0.0-3.0) | ++++ (15.01-20.00) | ‡‡‡ (5001-10000) | ** (3.01-5.0)

— patent publication US10704030B2, “P450-BM3 variants with improved activity” (Codexis, Inc., priority 2015, dated 2020)
